# From article PMC6641176 (ACS Omega, 2017)
# B1: AqpZ-C20S (Escherichia coli aquaporin Z, C20S mutant) (natural protein)
# chain: MFRKLAAECFGTFWLVFGGSGSAVLAAGFPELGIGFAGVALAFGLTVLTMAFAVGHISGGHFNPAVTIGLWAGGRFPAKEVVGYVIAQVVGGIVAAALLYLIASGKTGFDAAASGFASNGYGEHSPGGYSMLSALVVELVLSAGFLLVIHGATDKFAPAGFAPIAIGLALTLIHLISIPVTNTSVNPARSTAVAIFQGGWALEQLWFFWVVPIVGGIIGGLIYRTLLEKRD
# B2: AqpZ-G144F (in the AqpZ-C20S background) (natural protein, Escherichia coli)
# chain: MFRKLAAECFGTFWLVFGGSGSAVLAAGFPELGIGFAGVALAFGLTVLTMAFAVGHISGGHFNPAVTIGLWAGGRFPAKEVVGYVIAQVVGGIVAAALLYLIASGKTGFDAAASGFASNGYGEHSPGGYSMLSALVVELVLSAFFLLVIHGATDKFAPAGFAPIAIGLALTLIHLISIPVTNTSVNPARSTAVAIFQGGWALEQLWFFWVVPIVGGIIGGLIYRTLLEKRD
# B3: AqpZ-I176G (in the AqpZ-C20S background) (natural protein, Escherichia coli)
# chain: MFRKLAAECFGTFWLVFGGSGSAVLAAGFPELGIGFAGVALAFGLTVLTMAFAVGHISGGHFNPAVTIGLWAGGRFPAKEVVGYVIAQVVGGIVAAALLYLIASGKTGFDAAASGFASNGYGEHSPGGYSMLSALVVELVLSAGFLLVIHGATDKFAPAGFAPIAIGLALTLIHLGSIPVTNTSVNPARSTAVAIFQGGWALEQLWFFWVVPIVGGIIGGLIYRTLLEKRD
# How the values were obtained:
# [1] = target: the molecule itself; experiment: SDS-PAGE and western blot
# SEC = target: the molecule itself; experiment: SEC
Protein,stoichiometry N [1],stoichiometry N (SEC)
B1,4,–
B2,–,4
B3,–,4
